The values below come from article PMC8270467, “A MYB4-MAN3-Mannose-MNB1 signaling cascade regulates cadmium tolerance in Arabidopsis”.

In the data set the target is MYB4-MBP (Arabidopsis thaliana, UniProt Q9SZP1 1-282). The experiment in a line: EMSA; LightShift Chemiluminescent EMSA Kit (Thermo), manufacturer's protocol; buffer, salt, pH and temperature not stated. The conditions noted are these: protein: recombinant; tags: MBP; label: 3' biotin on sense strand; blunt.
MYB4-MBP, sequence (Q9SZP1 whole entry): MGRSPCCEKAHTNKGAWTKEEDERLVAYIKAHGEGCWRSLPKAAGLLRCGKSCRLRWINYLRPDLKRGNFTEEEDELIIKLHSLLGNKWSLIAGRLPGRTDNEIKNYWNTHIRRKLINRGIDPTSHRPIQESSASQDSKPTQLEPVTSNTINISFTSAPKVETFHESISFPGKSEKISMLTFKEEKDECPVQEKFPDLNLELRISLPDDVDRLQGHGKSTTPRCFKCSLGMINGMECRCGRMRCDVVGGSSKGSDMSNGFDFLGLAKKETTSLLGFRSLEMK

B1: ProMAN3 P3 probe (dsDNA)
DNA 1: CAAATCATATAGTTTGGTGACTGATTTCAA
DNA 2: TTGAAATCAGTCACCAAACTATATGATTTG
On to B1, for which the binding result was “binds”.

B2: ProMAN3 P1 probe (dsDNA)
DNA 1: GGTTTACAAATCAACAACCACTGAACTTTT
DNA 2: AAAAGTTCAGTGGTTGTTGATTTGTAAACC
Take B2: the binding result was “binds”.

B3: ProMAN3 P4 probe (dsDNA)
DNA 1: AGTTAGTCAATGAACGGTTTTCAAATAAAG
DNA 2: CTTTATTTGAAAACCGTTCATTGACTAACT
On to B3, for which the binding result was “binds”.

B4: ProMAN3 P2 probe (dsDNA)
DNA 1: AAGATGGGTTTGCTTGGTGAGACCACAAGA
DNA 2: TCTTGTGGTCTCACCAAGCAAACCCATCTT
In the case of B4, the binding result is “binds”.
